Columns and labels:
PBMCs = test: MTT cell viability assay, PBMC; assay type: cell-based, human; conditions: peptide 1, 5 and 25 μM
Description: FIGS. 13A and B are bar charts showing the effect of A467 and A464 on LPS-induced TNFα production and on cell viability in primary human cells. Peripheral blood mononuclear cells (PBMCs) were seeded in 96 well plates (1 ×10^6 cells/ml) 24 hours before treatment. A467 (SEQ ID NO. 23) and A464 (SEQ ID NO. 20) were added to the cells at 1, 5 and 25 μM 1 hour before stimulating with 10 ng/ml LPS. The peptides were added into the unstimulated control wells at 25 μM. Supernatants were collected 6 hours after stimulation and assayed for TNFα production by ELISA (A). The cells were assayed for viability by the MTT assay (B). No peptides were added to the control wells (black bars). Data is representative of at least three experiments each performed in triplicate and is expressed as mean±s.d;
Cell viability was measured by assessing mitochondrial function using an MTT (3-(4,5-Dimethylthiazol-2-yl)-2,5-diphenyltetrazolium bromide) assay. Cells were seeded into 96 well plates and treated with peptides and agonists as described above in relation to the Figs. Wells containing medium only served as a blank control. To terminate treatment of cells, medium was removed and the cells were washed once with PBS. […] MTT was then removed and 200 μl per well of dimethyl sulphoxide (DMSO) was added and cells incubated for 20 min at 37° C. in the dark, prior to absorbance being read at 595 nm on a spectrophotometer.

JNK = test: LPS-induced phospho-JNK in RAW264.7 cells, immunoblot; assay type: cell-based, murine; conditions: peptide 5 μM, 10 ng/ml LPS 5-60 min
Description: FIGS. 27A, B and C are immunoblots showing the effect of A464 on LPS-induced appearance of phospho-JNK in murine RAW264.7 cells. Cells were set up as for FIG. 25 above and 5 μM A467 (SEQ ID NO. 23) or A464 (SEQ ID NO. 20) were added to the wells 1 hour before stimulation. Cells were stimulated with 10 ng/ml LPS for a period of 5, 15, 30 or 60 min, then harvested and lysed. Proteins were resolved by SDS-PAGE, and transferred membranes immunoblotted for phospho-JNK (A), total JNK (B) or β-actin (C). The blots shown are representative of two experiments;
RAW264.7 cells were seeded at a density of 1×10^5 cells/ml in 6 well plates. […] The protein concentration was determined by monitoring the change in the solution absorbance at 280 nm using a spectrophotometer compared to protein standards. […] Thereafter, the membranes were washed, incubated in appropriate secondary antibody and then developed using standard enhanced chemi-luminescence (ECL) reagents.
Next, the effect of A464 (SEQ ID No. 20) on MAPK activation was measured by assaying the phosphorylation of p38 and JNK by Western blot. […] As before the protein concentration in the samples was determined by Bradford assay and the accuracy of the loading was confirmed by re-probing the blot for β-actin. […]

For KYSFKLILAEYRRRRRRRRR [Peptide A464], the “toxicity (MTT)” value (PBMCs) was “not toxic” and the “effect on LPS-induced phosphorylation of JNK” value (JNK) was “completely inhibited phosphorylation of JNK at all times of the LPS stimulation”.

— patent US8722052B2, “Vaccinia virus protein A46 peptide and use thereof” (priority 2008, dated 2014)
